This is an account of results in article PMC7821693, “Revealing biophysical properties of KfrA-type proteins as a novel class of cytoskeletal, coiled-coil plasmid-encoded proteins”.

Several values for one entry are separate records, joined by “and”; a condition that tells them apart may be missing. Equal values may be shown once.

In data set [1] the target is His6-KfrA_(R751) (plasmid R751 (IncP-1β)). As to the kind of experiment: cross-linking; glutaraldehyde at different concentrations, protein 0.1 mg/ml, 20 min at 25 °C, 0.05 M bicine-NaOH pH 8.5, 0.1 mM DTT, 0.4 M NaCl; products on SDS-PAGE.
Data set [2] addresses T1, KfrA RA3 (His6-KfrARA3) (IncU plasmid RA3, UniProt Q209P3 1-355).
T1 sequence: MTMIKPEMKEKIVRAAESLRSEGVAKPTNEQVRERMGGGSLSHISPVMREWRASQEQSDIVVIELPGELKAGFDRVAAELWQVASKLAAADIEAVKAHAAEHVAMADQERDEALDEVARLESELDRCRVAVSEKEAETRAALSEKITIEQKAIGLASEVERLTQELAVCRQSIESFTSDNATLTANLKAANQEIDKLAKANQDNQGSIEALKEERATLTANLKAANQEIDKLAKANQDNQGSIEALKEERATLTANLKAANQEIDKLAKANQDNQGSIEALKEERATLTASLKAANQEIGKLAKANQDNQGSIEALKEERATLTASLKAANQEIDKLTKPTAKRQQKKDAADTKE
Description: competition; unlabeled competitor vs labeled OKRA3; EMSA: 50 mM Tris-HCl pH 8.0, 10 mM MgCl2, 50 mM NaCl, 10 pmol DNA, 30 min at 37 C (legend: 25 C), 2.5% agarose in 0.5x TBE; TEM: 0.3 mg/ml protein, 50 mM sodium phosphate pH 7.5, 150 mM NaCl. Particulars: protein: recombinant; chain copies: 2; blunt. (Mobility shift assays separate free from complexed probe on a gel.)

The target in data set [3] is T2, KfrA R751 (His6-KfrAR751) (IncP-1beta plasmid R751, UniProt P71173 1-342).
T2 sequence: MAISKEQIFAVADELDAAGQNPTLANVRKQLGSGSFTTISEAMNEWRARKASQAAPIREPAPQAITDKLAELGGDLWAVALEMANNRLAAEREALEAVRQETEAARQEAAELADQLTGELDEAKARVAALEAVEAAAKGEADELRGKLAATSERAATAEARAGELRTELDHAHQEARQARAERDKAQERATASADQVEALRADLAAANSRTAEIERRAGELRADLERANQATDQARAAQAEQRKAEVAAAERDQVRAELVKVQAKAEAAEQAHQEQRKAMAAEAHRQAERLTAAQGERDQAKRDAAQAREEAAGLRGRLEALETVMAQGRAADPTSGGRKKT
As to the kind of experiment: EMSA; complex unstable, smear; two complexes; EMSA: 50 mM Tris-HCl pH 8.0, 10 mM MgCl2, 50 mM NaCl, 10 pmol DNA, 30 min at 37 C (legend: 25 C), 2.5% agarose in 0.5x TBE; TEM: 0.3 mg/ml protein, 50 mM sodium phosphate pH 7.5, 150 mM NaCl. Particulars: protein: recombinant; chain copies: 2; blunt.

Data set [4] has as its target T1, KfrA RA3 (His6-KfrARA3). As to the kind of experiment: EMSA; two complexes, some smear; EMSA: 50 mM Tris-HCl pH 8.0, 10 mM MgCl2, 50 mM NaCl, 10 pmol DNA, 30 min at 37 C (legend: 25 C), 2.5% agarose in 0.5x TBE; TEM: 0.3 mg/ml protein, 50 mM sodium phosphate pH 7.5, 150 mM NaCl. Particulars: protein: recombinant; chain copies: 2; blunt.

As to His6-KfrA_(R751) (natural protein), in data set [1], the stoichiometry N is 2 and 4.

B1: OG5/OD5 (#9/#10), specific competitor (dsDNA)
DNA 1: TATGTATTGTATGTATTGTATTAAAATACAATACATACAATACAGG
DNA 2: CCTGTATTGTATGTATTGTATTTTAATACAATACATACAATACATA
In the case of B1, the binding result with KfrA RA3 (His6-KfrARA3) [2] is listed as “binds”.

B2: OKR751 (#15/#16), 50 bp (dsDNA)
DNA 1: CTTGCGTAGTGTTGTATGTTGTAGTATGCTACACGCTACAACATACAACC
DNA 2: GGTTGTATGTTGTAGCGTGTAGCATACTACAACATACAACACTACGCAAG
Take B2: in data set [3], the binding result is listed as “binds”.

B3: OKRA3 (#17/#18), 60 bp (dsDNA)
DNA 1: TCCGTTGTATTGTATGTATTGTATGTATTGTATTAAAATACAATACATACAATACAGGGA
DNA 2: TCCCTGTATTGTATGTATTGTATTTTAATACAATACATACAATACATACAATACAACGGA
With B3, in the data set with KfrA RA3 (His6-KfrARA3) [4], the binding result is on record as “binds”.

One may read the stoichiometry N as a count of units in the complex or per binding partner.
